# Measured values: IntAct's records for PubMed 16432186
# B1: Beta-arrestin-1 (Homo sapiens), P49407-1 (parent)
# chain: MGDKGTRVFKKASPNGKLTVYLGKRDFVDHIDLVDPVDGVVLVDPEYLKERRVYVTLTCAFRYGREDLDVLGLTFRKDLFVANVQSFPPAPEDKKPLTRLQERLIKKLGEHAYPFTFEIPPNLPCSVTLQPGPEDTGKACGVDYEVKAFCAENLEEKIHKRNSVRLVIRKVQYAPERPGPQPTAETTRQFLMSDKPLHLEASLDKEIYYHGEPISVNVHVTNNTNKTVKKIKISVRQYADICLFNTAQYKCPVAMEEADDTVAPSSTFCKVYTLTPFLANNREKRGLALDGKLKHEDTNLASSTLLREGANREILGIIVSYKVKVKLVVSRGGLLGDLASSDVAVELPFTLMHPKPKEEPPHREVPENETPVDTNLIELDTNDDDIVFEDFARQRLKGMKDDKEEEEDGTGSPQLNNR
# Variants of: B1
# Conditions: with src_human SRC
row,effect of a mutation on the interaction,Variant
1,disrupting interaction strength,S412D
